Measurements reported in US12514920B1, “Respiratory syncytial virus mRNA vaccine, and preparation method therefor and use thereof” (Hangzhou Tianlong Pharmaceutical Co., Ltd., priority 2024, dated 2026).

Legend:
RSV F antibody (11A9) = assay: Binding of epitope II of RSV F antigen mutants by flow cytometry; details: for RSV F antibody (11A9) Epitope II (%): binding rate, 293T cells 16 h after mRNA-LNP transfection
Text: (§1) To investigate whether the RSV F antigen mutants have pre-fusion epitopes, an RSV pre-F antibody (3C12) (specifically binding to the RSV pre-F epitope […]) and an RSV F antibody (11A9) (binding to pre-F and post-F epitopes II) were detected by flow cytometry in this example, and RSV F protein mutants in the pre-F conformation were expected to bind to the antibodies tested.
(§2) • 293T cells (purchased from ATCC cell bank); RSV pre-F antibody (3C12), epitope […] (Novoprotein, Cat. No.: DA101); RSV F antibody (11A9), epitope II (Novoprotein, Cat. No.: DA091); • experimental groups: mRNA vaccines corresponding to the expressed antigens in Example 3;
(§3) • (1) Cell transfection: 293T cells were seeded at 1.3×10^5 cells/well in a 24-well plate. The next day, mRNA-LNP samples (containing 300 ng of mRNA) were added directly to the cells, and the mixture was uniformly mixed. • (2) Cell collection: The cells were taken out of the incubator after 16 h of transfection, the medium was pipetted off, 500 μL of 0.1% BSA solution was pipetted to wash the medium remaining in the well plate, taking care not to resuspend the cells, and the 0.1% BSA solution was pipetted off. 500 μL of 0.1% BSA solution was added to each well, and the cells were pipetted and transferred to a 1.5 mL centrifuge tube. • (3) Centrifugation: The cells were harvested by centrifugation at 400 g for 5 min at 4° C. in the dark, and the supernatant was discarded. • (4) Straining: 50.6 μL of RSV fluorescent antibody diluent was added to each of the control sample and the test samples to resuspend the cells, and the samples were incubated at 4° C. for 2 h in the dark. • (5) Cleaning: After the incubation was completed, 500 μL of 0.1% BSA solution was added to each tube, the cells were harvested by centrifugation at 400 g for 5 min at 4° C. in the dark, and the supernatant was discarded. This operation was repeated three times. • (6) Resuspension of cells: 200 μL of 0.1% BSA solution was added to each sample, and the cells were carefully pipetted to prepare a cell suspension. • (7) Detection on flow cytometer: The […] of RSV F mutants to antibodies were measured using flow cytometry, with 1×10^4 cells detected in each measurement.
(§4) The RSV pre-F antibody (3C12) used in this example specifically binds to the RSV pre-F epitope Φ, and the RSV F antibody (11A9) binds to the pre-F and post-F epitopes II. Whether the pre-fusion conformations of the RSV F mutants are stable can be further determined by detecting the binding of the epitope Φ and the epitope II on the mutants to corresponding epitopes of antibodies 3C12 and 11A9, respectively, by flow cytometry.

[1] = tested on: RSV pre-F antibody (3C12); assay: Binding of epitope Φ of RSV F antigen mutants by flow cytometry; details: for RSV pre-F antibody (3C12) Epitope Φ (%): binding rate, 293T cells 16 h after mRNA-LNP transfection; for Φ/II (%): ratio of epitope Φ (3C12) to epitope II (11A9) binding rate
Text: as §1, §2, §3, §4

[2] = tested on: RSV pre-F antibody (3C12); format: physicochemical; details: ELISA binding to 3C12; for Stress resistance parameter, Osmotic pressure (mM) 3000: high osmotic pressure 3000 mM; for Stress resistance parameter, Osmotic pressure (mM) 3000 / Stress resistance parameter, Osmotic pressure (mM) 10: room temperature; for Stress resistance parameter, Osmotic pressure (mM) 3000 / Stress resistance parameter, Osmotic pressure (mM) 10 / Stress resistance parameter, pH 3.5 / Stress resistance parameter, pH 10: 60 min; for Stress resistance parameter, Temperature (° C.) 50: incubation at 50° C. for 60 min; for Stress resistance parameter, Osmotic pressure (mM) 10: low osmotic pressure 10 mM; for Stress resistance parameter, pH 3.5: pH 3.5, room temperature; for Stress resistance parameter, pH 10: pH 10, room temperature; for Stress resistance parameter, Temperature (° C.) 4: storage at 4° C. for one week
Text: To investigate the stability of the RSV F antigen mutants under different pH, temperature, osmotic pressure and other conditions, the mutants were subjected to stress tests under different treatment conditions in this example.
• 293T cells (purchased from ATCC cell bank); • Primary antibody: RSV pre-F antibody (3C12), epitope Φ (purchased from Suzhou Novoprotein Scientific Co., Ltd. (hereinafter referred to as Novoprotein), Cat. No.: DA101); • Standard: RSV pre-F trimer protein (Novoprotein, Cat. No.: DRA230); • Secondary antibody: peroxidase AffiniPure goat anti-human IgG (H+L) (purchased from Yeasen Biotechnology (Shanghai) Co., Ltd. (hereinafter referred to as Yeasen), Cat. No.: N/A); • Experimental group: mRNA vaccines after screening in Example 4;
Coating: A 96-well microplate was coated with a working solution and incubated at 2 to 8° C. for 16 to 20 h.
Plate washing: Phosphate buffered saline PBST was added to each well, and the plate was washed 5 times using a plate washer and patted dry on absorbent paper.
Blocking: After a blocking solution was added, the […] were placed on a constant temperature microplate shaker and incubated at 400 rpm for 1.5 h at 37° C.
Plate washing: PBST was added to each well, and the plate was washed 5 times using a plate washer and patted dry on absorbent paper.
Primary antibody incubation: A primary antibody dilution was added to each well, and the plate was sealed with a sealing film, and then incubated at 400 rpm for 1.5 h at 37° C.
Secondary antibody incubation: A secondary antibody dilution was added to each well, and the plate was sealed with a sealing film, and then incubated at 400 rpm for 45 min at 37° C.
Color development: A chromogenic solution was added, and the plate was sealed with a sealing film, and then placed on a constant temperature microplate shaker and incubated at 400 rpm for 25 min at 37° C.
Reaction stopping: After the color development was completed, a stop buffer was added at […] to the microplate to stop the reaction.
Plate reading: Absorbance values (OD values) were read within 5 min using a multimode microplate reader, with dual wavelengths of 450 nm and 630 nm set.
In this example, stability screening of the mutants through different treatment conditions was defined as a stress test, including storage at 4° C. for one week; incubation at 50° C. for 60 min; treatment at room temperature under low osmotic pressure and high osmotic pressure conditions for 60 min; treatment at room temperature under acid and base conditions for 60 min. The binding of the mutants to the RSV pre-F antibody (3C12) recognizing the epitope Φ was detected by ELISA.

Molecule	RSV F antibody (11A9) Epitope II (%) (RSV F antibody (11A9))	RSV F antibody (11A9) Epitope II (%) binding rate (RSV F antibody (11A9); epitope II, antibody 11A9) [%]	RSV pre-F antibody (3C12) Epitope Φ (%) ([1]; flow cytometry)	RSV pre-F antibody (3C12) Epitope Φ (%) binding rate ([1]; flow cytometry, epitope Φ, antibody 3C12) [%]	Φ/II (%) [1] [%]	Stress resistance parameter, Osmotic pressure (mM) 3000 [2]	Stress resistance parameter, Temperature (° C.) 50 [2]	Stress resistance parameter, Osmotic pressure (mM) 10 [2]	Stress resistance parameter, pH 3.5 [2]	Stress resistance parameter, pH 10 [2]	Stress resistance parameter, Temperature (° C.) 4 [2]
RSVA2 (138251)-wt: wild sequence of RSV A2 F protein, full length (1 to 574 aa) [reference compound]	23.1	23.1	1.0	1.0	4.3						
YK-RSV-038 (protein) QNITEEFYQSTCSAVSKGYLGALRTGWYTCVITIELSNIKENKCNGTDAKVKLIKQELDKYKNAVTDLQLLMQSTPATGSGSAIASGVAVSKVLHLEGEVNKIKSALLSTNKAVVSLSNGVCVLTFKVLDLKNYIDKQLLPILNKQSCSIPNIETVIEFQQKNNRLLEITREFSVNAGVTTPVSTYMLTNSELLSLINDMPITNDQKKLMSNNVQIVRQQSYSIMSIIKEEVLAYVVQLPLYGVIDTPCWKLHTSPLCTTNTKEGSNICLTRTDRGWYCDNAGSVSFFPQAETCKVQSNRVFCDTMNSRTLPSEVNLCNVDIFNPKYDCKIMTSKTDVSSSVITSLGAIVSCYGKTKCTASNKNRGIIKTFSNGCDYVSNKGVDTVSVGNTLYYVNKQEGQSLYVKGEPIINFYDPLVFPSDEFDASISQVNEKINQSLAFIRKSDELLHNVNAGKSTTNIMITTIIIVIIVILLSLIAVGLLLY					94.8	0.55 ± 0.13	0.70 ± 0.10	0.74 ± 0.08	0.88 ± 0.17	0.82 ± 0.26	0.32 ± 0.08
YK-RSV-056 (protein) QNITEEFYQSTCSAVSKGYLGALRTGWYTSVITIELSNIKENKCNGTDAKVKLIKQELDKYKNAVTDLQLLMQSTPATGSGSCIASGVAVSKVLHLEGEVNKIKSALLSTNKAVVSLSNGVSVLTFKVLDLKNYIDKQLLPILNKQSCSIPNIETVIEFQQKNNRLLEITREFSVNAGVTTPVSTYMLTNSELLSLINDMPITNDQKKLMSNNVQIVRQQSYCIMSIIKEEVLAYVVQLPLYGVIDTPCWKLHTSPLCTTNTKEGSNICLTRTDRGWYCDNAGSVSFFPQAETCKVQSNRVFCDTMNSRTLPSEVNLCNVDIFNPKYDCKIMTSKTDVSSSVITSLGAIVSCYGKTKCTASNKNRGIIKTFSNGCDYVSNKGVDTVSVGNTLYYVNKQEGQSLYVKGEPIINFYDPLVFPSDEFDASISQVNEKINQSLAFIRKSDELLHNVNAGKSTTNIMITTIIIVIIVILLSLIAVGLLLY					97.4	0.44 ± 0.08	0.91 ± 0.09	0.82 ± 0.07	0.64 ± 0.12	0.72 ± 0.14	0.69 ± 0.10
YK-RSV-005 (protein) QNITEEFYQSTCSAVSKGYLGALRTGWYTSVITIELSNIKENKCNGTDAKVKLIKQELDKYKNAVTDLQLLMQSTPATGSGSAICSGVAVCKVLHLEGEVNKIKSALLSTNKAVVSLSNGVSVLTIKVLDLKNYIDKQLLPIVNKQSCSISPIETVIEFQQKNNRLLEITREFSVNAGVTTPVSTYMLTNSELLSLINDMPITNDQKKLMSNNVQIVRQQSYSIMCIIKEEVLAYVVQLPLYGVIDTPCWKLHTSPLCTTNTKEGSNICLTRTDRGWYCDNAGSVSFFPQAETCKVQSNRVFCDTMNSRTLPSEVNLCNVDIFNPKYDCKIMTSKTDVSSSVITSLGAIVSCYGKTKCTASNKNRGIIKTFSNGCDYVSNKGVDTVSVGNTLYCVNKQEGQSLYVKGEPIINFYDPLVFPSSEFDASISQVNEKINQSLAFIRKSDELLHNVNAGKSTTNIMITTIIIVIIVILLSLIAVGLLLY					96.2	0.47 ± 0.08	0.44 ± 0.06	0.57 ± 0.00	0.64 ± 0.20	0.88 ± 0.14	0.55 ± 0.09
YK-RSV-014 (protein) QNITEEFYCSTCSAVSKGYLGALRTGWYTSVITIELSNIKENKCNGTDAKVKLIKQELDKYKNAVTDLQLLMQSTPATGSGSAICSGVAVSKVLHLEGEVNKIKSALLSTNKAVVSLSNGVSVLTIKVLDLKNYIDKQLLPIVNKQSCSIPNIETVIEFQQKNNRLLEITREFSVNAGVTTPVSTYMLTNSELLSLINDMPITNDQKKLMSNNVQIVRQQSYSIMSIIKEEVLAYVVQLPLYGVIDTPCWKLHTSPLCTTNTKEGSNICLTRTDRGWYCDNAGSVSFFPQAETCKVQSNRVFCDTMNSRTLPSEVNLCNVDIFNPKYDCKIMTSKTDVSSSVITSLGAIVSCYGKTKCTASNKNRGIIKTFSNGCDYVSNKGVDTVSVGNTLYCVNKQEGQSLYVKCEPIINFYDPLVFPSSEFDASISQVNEKINQSLAFIRKSDELLHNVNAGKSTTNIMITTIIIVIIVILLSLIAVGLLLY	0.1		0.0		0.0						
YK-RSV-017 (protein) QNITEEFYQSTCSAVSKGYLGALRTGWYTCVILIELSNIKENKCNGTDAKVKLIKQELDKYKNAVTDLQLLMQSTPATGSGSAICSGVAVSKVLHLEGEVNKIKSALLSTNKAVVSLSNGVSVCTFKVLDLKNYIDKQLLPIVNKQSCSIPNIETVIEFQQKNNRLLEITREFSVNAGVTTPVSTYMLTNSELLSLINDMPITNDQKKLMSNNVQIVRQQSYSIMSIIKEEVLAYVVQLPLYGVIDTPCWKLHTSPLCTTNTKEGSNICLTRTDRGWYCDNAGSVSFFPQAETCKVQSNRVFCDTMNSRTLPSEVNLCNVDIFNPKYDCKIMTSKTDVSSSVITSLGAIVSCYGKTKCTASNKNRGIIKTFSNGCDYVSNKGVDTVSVGNTLYCVNKQEGQSLYVKGEPIINFYDPLVFPSSEFDASISQVNEKINQSLAFIRKSDELLHNVNAGKSTTNIMITTIIIVIIVILLSLIAVGLLLY					96.5	0.46 ± 0.06	0.60 ± 0.04	0.59 ± 0.03	0.76 ± 0.11	0.93 ± 0.06	0.35 ± 0.07
